Patent US20190032032A1

Target: HSP90 (heat shock protein 90) (human (endogenous in the human Huh7.5-derived JFH-1 cell line)) (UniProt P07900)
Test: cell-based or functional assay

Substance: PEP1 peptide (hTERT-derived 16mer peptide, 611-…-626)
- mean 50% inhibitory concentration (IC50) of HIV-1 viral particle production in MT-4 cells, p24 ELISA: 850 nM
